The target of data set [1] is T1, hPUM1-HD (Pum-HD domain of human PUM1) (Homo sapiens, UniProt Q14671 828-1168). Briefly: competition; EMSA; 5x, 10x, 50x excess over biotin-labeled WT probe; shifted band disappeared; 10 mM Hepes/KOH pH 7.4, 50 mM KCl, 3 mM MgCl2, 1 mM EDTA, 0.1 mg/ml yeast tRNA, 2 mM DTT, 0.01% Tween-20, 0.2 U RNasin, 5% glycerol, 20 µl; 1 h on ice; 6% native gel, 0.5x TBE, room temperature. Particulars: protein: recombinant; single strand.

Data set [2] concerns the target T1, hPUM1-HD (Pum-HD domain of human PUM1). Briefly: competition; EMSA; 5x, 10x, 50x excess (source data label: 25x) over biotin-labeled WT probe; no effect; 10 mM Hepes/KOH pH 7.4, 50 mM KCl, 3 mM MgCl2, 1 mM EDTA, 0.1 mg/ml yeast tRNA, 2 mM DTT, 0.01% Tween-20, 0.2 U RNasin, 5% glycerol, 20 µl; 1 h on ice; 6% native gel, 0.5x TBE, room temperature. Particulars: protein: recombinant; single strand. A general note: Mobility shift assays separate free from complexed probe on a gel.

Data set [3] shares this target. Briefly: EMSA; 100-300 nM protein, 10 nM probe; 10 mM Hepes/KOH pH 7.4, 50 mM KCl, 3 mM MgCl2, 1 mM EDTA, 0.1 mg/ml yeast tRNA, 2 mM DTT, 0.01% Tween-20, 0.2 U RNasin, 5% glycerol, 20 µl; 1 h on ice; 6% native gel, 0.5x TBE, room temperature. The conditions noted are these: protein: recombinant; label: 3' biotin-TEG; single strand.

T1 sequence (Q14671 828-1168): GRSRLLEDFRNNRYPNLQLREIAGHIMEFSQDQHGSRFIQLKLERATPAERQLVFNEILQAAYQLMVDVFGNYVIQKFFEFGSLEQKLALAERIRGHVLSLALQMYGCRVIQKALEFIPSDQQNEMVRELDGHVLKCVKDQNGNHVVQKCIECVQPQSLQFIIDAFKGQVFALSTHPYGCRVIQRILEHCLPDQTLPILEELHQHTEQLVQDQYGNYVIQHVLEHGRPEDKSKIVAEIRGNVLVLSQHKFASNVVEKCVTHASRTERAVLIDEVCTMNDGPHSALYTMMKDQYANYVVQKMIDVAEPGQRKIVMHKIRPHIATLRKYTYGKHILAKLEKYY

B1: pum1site-wt (unlabeled competitor) (ssRNA)
RNA: GAUAGGCUGUACAUAAAUUCAUAAUCG
For the molecule B1, the binding result in data set [1] is recorded as “binds”.

B2: pum1site-mut (unlabeled competitor, UGUA to ACAA) (ssRNA)
RNA: GAUAGGCACAACAUAAAUUCAUAAUCG
As to B2, in data set [2], the binding result is given as “no binding”.

B3: pum1site-wt-3BioTEG (Xbp1 3'UTR PRE1) (ssRNA)
RNA: GAUAGGCUGUACAUAAAUUCAUAAUCG
In the case of B3, the binding result in data set [3] is on record as “binds”.

For the origin of these results see PMC8948244, “Pumilio protects Xbp1 mRNA from regulated Ire1-dependent decay”.
